From patent US20250368745A1 (published 2025)
Residue numbers refer to the chain shown, from its start. In names and notes the source's numbering stands.

T1: human IL-18BP (human, UniProt O95998 31-194)
T1 construct: UniProt printed as 095998; also called hIL-18BP
T1 sequence: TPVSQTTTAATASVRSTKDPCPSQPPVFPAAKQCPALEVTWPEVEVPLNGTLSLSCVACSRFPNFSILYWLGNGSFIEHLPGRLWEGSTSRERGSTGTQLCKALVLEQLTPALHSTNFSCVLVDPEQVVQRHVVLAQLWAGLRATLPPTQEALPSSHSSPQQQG

T2: cynomolgus IL-18BP (cynomolgus monkey)
T2 construct: also called cyno IL-18BP; cyIL-18BP
T2 chain: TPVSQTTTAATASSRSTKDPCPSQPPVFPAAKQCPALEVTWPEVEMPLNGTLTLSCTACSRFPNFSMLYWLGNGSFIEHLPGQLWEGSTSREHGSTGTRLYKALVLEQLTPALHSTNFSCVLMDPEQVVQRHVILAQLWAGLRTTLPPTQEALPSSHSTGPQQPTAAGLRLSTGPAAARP

T3: human IL-18BP (human, UniProt O95998 31-194)
T3 construct: also called hIL-18BP; Mature Human Isoform A
T3 sequence: T1 sequence

B1: SA301a HC-H52D (antibody, name in Kabat numbering, V domains shown)
VH: QVQLQESGPGLVKPSQTLSLTCTVSGYSITSDYNSHWIRQPPGKGLEWIGYIDYSGSTNYNPSLKSRVTISRDTSKNQFSLKLSSVTAADTAVYYCARNYGSIYVNYFDYWGQGTLVTVSS
VL: EIVLTQSPATLSLSPGERATLSCSASSSVSYMYWYQQKPGQAPRPLIYRTSNLASGIPARFSGSGSGTDFTLTISSLEPEDFAVYYCQQYHSYPTFGGGTKVEIK
notes: IgG1 kappa
B2: SA301a light chain variant S28H (antibody, V domains shown)
VH: B1 VH with D53H
VL: B1 VL with S28H
B3: SA301a light chain variant S28T (antibody, V domains shown)
VH: B1 VH with D53H
VL: B1 VL with S28T
B4: SA301a light chain variant V29R (antibody, V domains shown)
VH: B1 VH with D53H
VL: B1 VL with V29R
B5: SA301a light chain variant V29A (antibody, V domains shown)
VH: B1 VH with D53H
VL: B1 VL with V29A
B6: SA301a light chain variant V29G (antibody, V domains shown)
VH: B1 VH with D53H
VL: B1 VL with V29G
B7: SA301a light chain variant V29L (antibody, V domains shown)
VH: B1 VH with D53H
VL: B1 VL with V29L
B8: SA301a light chain variant S28K (antibody, V domains shown)
VH: B1 VH with D53H
VL: B1 VL with S28K
B9: SA301a light chain variant S28Q (antibody, V domains shown)
VH: B1 VH with D53H
VL: B1 VL with S28Q
B10: SA301a light chain variant V29N (antibody, V domains shown)
VH: B1 VH with D53H
VL: B1 VL with V29N
B11: SA301a light chain variant S28M (antibody, V domains shown)
VH: B1 VH with D53H
VL: B1 VL with S28M
B12: SA301a light chain variant V29M (antibody, V domains shown)
VH: B1 VH with D53H
VL: B1 VL with V29M
B13: SA301a light chain variant S28Y (antibody, V domains shown)
VH: B1 VH with D53H
VL: B1 VL with S28Y
B14: SA301a light chain variant S28N (antibody, V domains shown)
VH: B1 VH with D53H
VL: B1 VL with S28N
B15: SA301a light chain variant V29H (antibody, V domains shown)
VH: B1 VH with D53H
VL: B1 VL with V29H
B16: SA301a light chain variant S28P (antibody, V domains shown)
VH: B1 VH with D53H
VL: B1 VL with S28P
B17: SA301a light chain variant S28G (antibody, V domains shown)
VH: B1 VH with D53H
VL: B1 VL with S28G
B18: SA301a light chain variant V29Y (antibody, V domains shown)
VH: B1 VH with D53H
VL: B1 VL with V29Y
B19: SA301a light chain variant S28E (antibody, V domains shown)
VH: B1 VH with D53H
VL: B1 VL with S28E
B20: SA301a light chain variant S28F (antibody, V domains shown)
VH: B1 VH with D53H
VL: B1 VL with S28F
B21: SA301a light chain variant V29D (antibody, V domains shown)
VH: B1 VH with D53H
VL: B1 VL with V29D
B22: SA301a HC-I51L (antibody, name in Kabat numbering, V domains shown)
VH: B1 VH with I52L, D53H
VL: B1 VL
notes: IgG1 kappa
B23: SA301a HC-I51P (antibody, name in Kabat numbering, V domains shown)
VH: B1 VH with I52P, D53H
VL: B1 VL
notes: IgG1 kappa
B24: SA301a HC-I51V (antibody, name in Kabat numbering, V domains shown)
VH: B1 VH with I52V, D53H
VL: B1 VL
notes: IgG1 kappa
B25: SA301a HC-H52N (antibody, name in Kabat numbering, V domains shown)
VH: B1 VH with D53N
VL: B1 VL
notes: IgG1 kappa
B26: SA301a HC-H52R (antibody, name in Kabat numbering, V domains shown)
VH: B1 VH with D53R
VL: B1 VL
notes: IgG1 kappa
B27: SA301a HC-H52S (antibody, name in Kabat numbering, V domains shown)
VH: B1 VH with D53S
VL: B1 VL
notes: IgG1 kappa
B28: SA301a HC-I51M (antibody, name in Kabat numbering, V domains shown)
VH: B1 VH with I52M, D53H
VL: B1 VL
notes: IgG1 kappa
B29: SA301a HC-I51G (antibody, name in Kabat numbering, V domains shown)
VH: B1 VH with I52G, D53H
VL: B1 VL
notes: IgG1 kappa
B30: SA301a HC-I51A (antibody, name in Kabat numbering, V domains shown)
VH: B1 VH with I52A, D53H
VL: B1 VL
notes: IgG1 kappa
B31: SA301a HC-I51F (antibody, name in Kabat numbering, V domains shown)
VH: B1 VH with I52F, D53H
VL: B1 VL
notes: IgG1 kappa
B32: SA301a HC-I51R (antibody, name in Kabat numbering, V domains shown)
VH: B1 VH with I52R, D53H
VL: B1 VL
notes: IgG1 kappa
B33: SA301a HC-I51K (antibody, name in Kabat numbering, V domains shown)
VH: B1 VH with I52K, D53H
VL: B1 VL
notes: IgG1 kappa
B34: SA301a HC-I51D (antibody, name in Kabat numbering, V domains shown)
VH: B1 VH with I52D, D53H
VL: B1 VL
notes: IgG1 kappa
B35: SA301a HC-H52V (antibody, name in Kabat numbering, V domains shown)
VH: B1 VH with D53V
VL: B1 VL
notes: IgG1 kappa
B36: SA301a HC-I51S (antibody, name in Kabat numbering, V domains shown)
VH: B1 VH with I52S, D53H
VL: B1 VL
notes: IgG1 kappa
B37: SA301a HC-Y50A (antibody, name in Kabat numbering, V domains shown)
VH: B1 VH with Y51A, D53H
VL: B1 VL
notes: IgG1 kappa
B38: SA301a HC-I51T (antibody, name in Kabat numbering, V domains shown)
VH: B1 VH with I52T, D53H
VL: B1 VL
notes: IgG1 kappa
B39: SA301a HC-I51Y (antibody, name in Kabat numbering, V domains shown)
VH: B1 VH with I52Y, D53H
VL: B1 VL
notes: IgG1 kappa
B40: SA301a HC-H52I (antibody, name in Kabat numbering, V domains shown)
VH: B1 VH with D53I
VL: B1 VL
notes: IgG1 kappa
B41: SA301a HC-H52G (antibody, name in Kabat numbering, V domains shown)
VH: B1 VH with D53G
VL: B1 VL
notes: IgG1 kappa
B42: SA301a HC-I51E (antibody, name in Kabat numbering, V domains shown)
VH: B1 VH with I52E, D53H
VL: B1 VL
notes: IgG1 kappa

Tests used:
human IL-18BP [1] = target: T1, human IL-18BP; assay: BLI, apparent KD
cynomolgus IL-18BP = target: T2, cynomolgus IL-18BP; assay: BLI, apparent KD
human IL-18BP [2] = target: T3, human IL-18BP; assay: BLI, apparent KD, one conc.

Row | Binder | Kd (human IL-18BP [1]) [nM] | Kd (cynomolgus IL-18BP) [nM] | Kd (human IL-18BP [2]) [nM]
1 | B1 | 0.35 | 0.91 | 
2 | B2 |  |  | 0.44
3 | B3 |  |  | 0.43
4 | B4 |  |  | 0.38
5 | B5 |  |  | 0.4
6 | B6 |  |  | 0.41
7 | B7 |  |  | 0.33
8 | B8 |  |  | 0.51
9 | B9 |  |  | 0.45
10 | B10 |  |  | 0.44
11 | B11 |  |  | 0.51
12 | B12 |  |  | 0.35
13 | B13 |  |  | 0.47
14 | B14 |  |  | 0.45
15 | B15 |  |  | 0.47
16 | B16 |  |  | 0.39
17 | B17 |  |  | 0.51
18 | B18 |  |  | 0.4
19 | B19 |  |  | 0.39
20 | B20 |  |  | 0.46
21 | B21 |  |  | 0.43

Row | Binder | Kd (human IL-18BP [1]) [nM] | Kd (cynomolgus IL-18BP) [nM] | Kd (human IL-18BP [2]) [nM]
22 | B22 | 0.69 | 0.64 | 
23 | B23 | 3.73 | 1.93 | 
24 | B24 | 0.3 | 0.55 | 
25 | B25 | 1.04 | 2.83 | 
26 | B26 | 1.36 | 1.55 | 
27 | B27 | 0.63 | 1.16 | 
28 | B28 | 0.56 | 0.62 | 
29 | B29 | 0.92 | 0.87 | 
30 | B30 | 0.73 | 0.81 | 
31 | B31 | 2.38 | 1.55 | 
32 | B32 | 2 | 1.57 | 
33 | B33 | 0.49 | 0.59 | 
34 | B34 | 1.99 | 2.17 | 
35 | B35 | 0.34 | 0.88 | 
36 | B36 | 0.57 | 0.82 | 
37 | B37 | 2.97 | 3.8 | 
38 | B38 | 0.67 | 0.78 | 
39 | B39 | 1.46 | 1.27 | 
40 | B40 | 0.53 | 1.72 | 
41 | B41 | 1.68 | 1.66 | 
42 | B42 | 1.53 | 0.95 | 
